Changes are numbered by the printed parent chain. Values belong to the binder of their own block, whether it stands above or below them.
Columns and labels:
[1] = molecular target: T1, fully human HER3 ECD construct with N-terminal histidine tag (human, UniProt P21860 20-643); experiment: ELISA on coated His-tagged HER3 ECD constructs
T1 construct: extracellular domain; Transiently expressed in Hek 293 cells, purified on nickel NTA; also called fully human ECD construct
Text: Because the anti-HER3 antibody panel was raised in mice, antibodies are not expected to recognize epitopes present on murine HER3 due to the concept of “self tolerance”. Consequently, chimeric receptor constructs in which the human sequences coding for individual domains are replaced by murine sequences can be employed for epitope mapping purposes, since the antibodies are not expected to bind the murines sequence inserted in the human HER3 construct. Human and murine HER3 mRNA sequences (accession number M29366 and NM_{—}010153.1 respectively) were downloaded from NCBI, and extracellular domains I-IV were assigned as described by Kani et al. (J. Biol. Chem. (2005) 280:8238-8247). Chimeric human/murine domain exchange variants, in which each of the four human extracellular HER3 domains were replaced by the respective murine DNA sequence, were provided with an N-terminal histidine tag, gene synthesized and transiently expressed in Hek 293 cells. A fully human and a murine ECD construct were used as positive and negative controls, respectively. […] The next day wells were blocked with 1% BSA/PBS-T and titrations of antibodies diluted in blocking buffer were added. […]
The domain mapping of anti-HER3 antibodies is shown in FIGS. 27-32, which is a titration of anti-HER3 antibodies and negative controls against coated HER3 antigens. Bound antibody was detected with an anti-human Fc antibody. […]

human HER3 receptor = molecular target: T2, human HER3 receptor (human, UniProt P21860 20-643); experiment: method not named there (Example 1: HER3 ELISA and confocal microscopy on MCF-7 cells)
T2 construct: also called ErbB3
T2 sequence (P21860 20-643 limits assumed): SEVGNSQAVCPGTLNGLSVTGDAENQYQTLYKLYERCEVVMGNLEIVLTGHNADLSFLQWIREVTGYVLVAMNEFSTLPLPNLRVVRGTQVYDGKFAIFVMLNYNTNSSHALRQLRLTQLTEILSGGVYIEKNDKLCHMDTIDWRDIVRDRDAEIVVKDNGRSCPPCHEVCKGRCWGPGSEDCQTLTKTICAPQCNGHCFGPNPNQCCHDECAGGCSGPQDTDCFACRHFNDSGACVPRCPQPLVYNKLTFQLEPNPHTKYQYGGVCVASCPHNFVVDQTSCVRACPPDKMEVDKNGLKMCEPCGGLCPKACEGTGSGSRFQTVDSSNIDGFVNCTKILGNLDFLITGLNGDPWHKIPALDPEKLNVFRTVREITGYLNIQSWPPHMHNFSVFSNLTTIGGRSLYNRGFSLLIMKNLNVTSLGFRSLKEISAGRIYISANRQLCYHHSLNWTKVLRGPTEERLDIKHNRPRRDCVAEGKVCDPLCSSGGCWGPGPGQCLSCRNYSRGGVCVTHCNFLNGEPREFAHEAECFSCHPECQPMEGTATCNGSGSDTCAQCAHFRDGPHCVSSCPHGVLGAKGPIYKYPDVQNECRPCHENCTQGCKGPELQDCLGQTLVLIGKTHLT
Description: Briefly, Nunc Maxisorb plates (cat.#464718) were coated with 1 μg/ml HER3 protein (R&D Systems cat.#348-RB), diluted in PBS at 4° C. overnight. Prior to blocking in 50 μl 2% milk-PBS+0.05% Tween 20 the plates were washed once with PBS-T. The plates were washed once with PBS-T and 20 μl of 2% milk-PBS-T, and 10 μl supernatants from FreeStyle293 transfectants were added and incubated for 1 hour at room temperature, after which the plates were washed once with PBS-T, 20 μl per well. Secondary antibody (HRP-Goat-anti-human kappa light chain, Serotec, cat.# STAR 100P) diluted 1:25000 in 2% milk-PBS-T was added to detect the antibodies bound to the wells and incubated for 1 hour at room temperature. The plates were washed once in PBS-T before addition of 25 μl substrate (Kem-En-Tec Diagnostics, cat.#4518) that was incubated for 5 min. 25 μl 1M sulphuric acid was added after the incubation to stop the reaction. Specific signal was detected on an ELISA reader at 450 nm. From the ELISA data 480 positive antibody clones were identified and selected for sequence analysis and validation of binding to HER3.
The 119 clones were screened for binding to the HER3-overexpressing breast cancer cell line (MCF-7) using confocal microscopy. 10,000 MCF-7 cells were seeded into each well of 384-well cell carrier plates (Perkin Elmer, cat.#6007439) and allowed to attach overnight. The media was again discarded and the cells were washed and fixed with 2% formaldehyde solution (Aldrich cat.#533998). After washing, 40 μl of antibody supernatant was transferred to each well and plates were incubated for 2 hours, after which the media in the wells was discarded and 30 μl new media containing 2 μg/ml of Alexa-488 labelled goat anti-human IgG (H+L, Invitrogen cat.# A11013), 2 μg/ml CellMask Blue (Invitrogen cat.# H34558) and 1 μM Hoechst 33342 (Invitrogen cat.# H3570) was added to each well and plates were incubated for another 30 minutes. The level of fluorescence was then measured using an OPERA high throughput confocal microscope (Perkin Elmer).

T1 sequence (P21860 20-643): as the sequence (P21860 20-643 limits assumed) above

B1: antibody 5106 (antibody, human IgG1, kappa, V domains shown)
VH: EVKLVESGGDLVKPGESLKLSCAASGFTFSSFAMSWVRQTPEKRLEWVATISDGGSHLYYPDNVKGRFTISRDNAKNNLYLQMSHLKSEDTAMYYCARGILDYWGQGTSVTVSS
VL: DIVMTQATSSLSASLGDRVTISCSASQDINNYLNWYQQKPDGTIKLLIYYTSSLHSGVPSRFSGSGSGTDYSLTISNLEPEDIATYYCQQYSRIPYTFGGGTKLEIKR
notes: Chimeric: murine variable regions, human kappa constant region, expressed as full-length IgG
binding result [1]: binds | binding result (human HER3 receptor): binds

B2: antibody 5101 (antibody, human IgG1, kappa, V domains shown)
VH: B1 VH with D10G, E16G, F32Y, A33G, S52R, S56G, H57Y, L58T, P61S, K76Q
VL: QIVLTQSPSSLSASLGDRVTISCRASQDISNYLNWFQQRPDGTVKLLIYYTSRLHSGVPSRFSGSGSGTDYSLTISNLEQEDIATYFCQQGNTLPYTFGGGTKLELKR
notes: as for B1
binding result [1]: binds | binding result (human HER3 receptor): binds

B5: antibody 5082 (antibody, human IgG1, kappa, V domains shown)
VH: EVQLKESGPGLVKPSQSLSLTCSVTGYSITSAYYWNWIRQFPGNKVEWMGYIGYDGRNTYNPSLKNRISITRDTSKNQFFLKLNSLTTEDTATYYCSREGDYGYSDYWGQGTTLTVSS
VL: DIVMTQATSSLSASLGDRVTVSCRASQDINNYLNWYQQKPDGTVKLLIYYTSRLQSGVPSRFSGSGSGIDYSLTISNLEQEDFVTYFCQQSETLPWTFGGGTKLELKR
notes: Chimeric: murine variable regions, human IGHG1 and kappa constant regions; also called mAb 5082
binding result (human HER3 receptor): binds

B6: antibody 4785 (antibody, human IgG1, kappa, V domains shown)
VH: EVQLQQSGPELVMPGASVKISCKASGYSFTSYYVHWVKQRPGQGLEWIGWIYPGSGHTKYNEKFKDKATLTADTSSSTAYMQLSSLTSEDSAVYYCARPPYYSNYADVWGTGTTVTVSS
VL: DIVMTQSPSSLTVTAGEKVTMSCKSSQSLLNSGNQKNYLTWYQQKPGQPPKLLIYWASTRESGVPDRFTGSGSGTDFTLTISSVQAEDLAVYYCQSDYSYPYTFGGGTKLEIKR
notes: as for B1
binding result (human HER3 receptor): binds

B8: antibody 5259 (antibody, human IgG1, kappa, V domains shown)
VH: EVQLVESGPGLVAPSQSLSITCTVSGFSLSRYTIHWVRQPPGKGLEWLGMIWGGGSTDYNSALKSRLSISKDNSKSQLFLKMNSLQTDDTAIYYCARKGITTTGFDYWGQGTTLTVSS
VL: NIVLTQSPAIMSASPGEKVTMTCSASSSVSYMFWYQQKPGSSPRLLIYDTSNLASGVPVRFSGSGSGTSYSLTISRMEAEDAATYYCQQLNSYPPTFGGGTKLEIKR
notes: as for B1
binding result (human HER3 receptor): binds

B9: antibody 5144 (antibody, human IgG1, kappa, V domains shown)
VH: B8 VH with E1Q, V5K, T33S, I34V, S68N, S70N, L78V, L80F, I92M, A96V
VL: B8 VL with N1H, F33Y, G40R, E80D, N91S, I105L
notes: as for B1
binding result (human HER3 receptor): binds

B10: antibody 4935 (antibody, human IgG1, kappa, V domains shown)
VH: QIQLVQSGPELVKPGASVRISCKASGYTFTSYYIHWVKQRPGQGLEWIGWIYPGNVHTKYTEKFKGKATLTADKSSSTAYMHLSSLTSEDSAVYFCVRRYGYDGDWFAYWGQGTLVTVSS
VL: DIQMTQSPASLAVSLGQRATISCRASESVDSYGNTFMHWYQQKPGQPPKLLIYRASNLESGIPARFSGSGSRTDFTLTINPVEADDVATYYCQQSNEDPWTFGGGTKLEIKR
notes: as for B1
binding result (human HER3 receptor): binds

Now from value to binder:

binding result (human HER3 receptor): binds
B3: antibody 5038 (antibody, human IgG1, kappa, V domains shown)
VH: EVKLVESGPGLVKPSQSLSLTCSVTGYSITSGFYWTWIRQFPGNKLEWMGFISYDGSNNYNPSLKNRISITRDTSKNQFFLKLNSVTTEDTATYYCARGGGYYGNLFDYWGQGTTLTVSS
VL: DIVMTQTTSSLSASLGDRVTISCRPSQDISNYVNWFQQKPGGTVKLLIFHTSRLHSGVPSRFSGSGSGTDYSLTISTLEQEDIAIYFCQQGITLPWTFGGGTKLEIKR
notes: as for B1

binding result (human HER3 receptor): binds
B4: antibody 4889 (antibody, human IgG1, kappa, V domains shown)
VH: B5 VH with K5V, V46L, I52V, G53S, R57S, N84I, S97A
VL: B5 VL with A7S, N30S, V44I, Q55H, I69T, E79D, F83I, V84A, E92N, L106I
notes: as for B1

binding result (human HER3 receptor): binds
B7: antibody 5143 (antibody, human IgG1, kappa, V domains shown)
VH: B6 VH with E1Q, M13K, V34I, D66G
VL: B6 VL with L39M, P49S, S96N, I112L
notes: as for B1

From patent US20130287684A1 (SYMPHOGEN A S, published 2013)
